# Laboratory results taken from paper PMC2669833.
# Molecular target: Alvinella pompejana Cu, Zn superoxide dismutase (Alvinella pompejana)
# Experiment: SAXS
substance,measurement,value
"Alvinella pompejana Cu, Zn superoxide dismutase (enzyme)",stoichiometry N,2
